What all share (experiment): cell-based or functional assay
In one experiment the target is hGLP-1R (Homo sapiens, UniProt P43220).
Experiment [1] deals with T1, human GIP receptor (human) (UniProt P48546).
T1 sequence (looked up): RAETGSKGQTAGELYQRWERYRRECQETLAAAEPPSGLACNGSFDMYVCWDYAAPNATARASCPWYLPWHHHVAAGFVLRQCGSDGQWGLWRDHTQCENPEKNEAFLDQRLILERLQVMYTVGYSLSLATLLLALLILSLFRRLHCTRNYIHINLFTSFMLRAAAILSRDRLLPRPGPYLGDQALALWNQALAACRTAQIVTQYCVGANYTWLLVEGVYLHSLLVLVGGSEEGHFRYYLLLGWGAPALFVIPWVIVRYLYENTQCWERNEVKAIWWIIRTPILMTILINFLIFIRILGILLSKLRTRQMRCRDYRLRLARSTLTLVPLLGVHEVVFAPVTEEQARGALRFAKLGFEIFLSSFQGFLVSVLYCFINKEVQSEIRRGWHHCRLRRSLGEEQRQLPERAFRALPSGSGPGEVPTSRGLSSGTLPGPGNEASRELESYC

For experiment [2], the target named is human GLP1-R (SNAP-GLP-1R expressed in HEK293 cells) (human) (UniProt P43220).
For experiment [3], the target named is human glucagon receptor (human) (UniProt P47871).

These results are taken from patent US20240270821A1, “GIP/GLP1/GCG TRI-RECEPTOR AGONISTS AND USES THEREOF” (priority 2023, published 2024).

Positions count from the first letter of the chain named.

human glucagon receptor (human), sequence (P47871 26-477): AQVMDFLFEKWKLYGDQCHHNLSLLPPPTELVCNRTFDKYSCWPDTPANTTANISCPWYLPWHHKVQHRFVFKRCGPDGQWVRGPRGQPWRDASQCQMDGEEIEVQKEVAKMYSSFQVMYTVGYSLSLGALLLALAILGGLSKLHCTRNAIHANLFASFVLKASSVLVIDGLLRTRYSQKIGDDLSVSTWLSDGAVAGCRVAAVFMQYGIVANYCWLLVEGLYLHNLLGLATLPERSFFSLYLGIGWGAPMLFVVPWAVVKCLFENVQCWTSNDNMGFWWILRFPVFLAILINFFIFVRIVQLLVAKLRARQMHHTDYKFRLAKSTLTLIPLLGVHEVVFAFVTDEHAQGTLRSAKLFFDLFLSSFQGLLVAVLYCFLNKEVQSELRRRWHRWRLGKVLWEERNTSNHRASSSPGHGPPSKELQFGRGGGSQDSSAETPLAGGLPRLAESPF
human GLP1-R (SNAP-GLP-1R expressed in HEK293 cells) (human), sequence (P43220 24-463): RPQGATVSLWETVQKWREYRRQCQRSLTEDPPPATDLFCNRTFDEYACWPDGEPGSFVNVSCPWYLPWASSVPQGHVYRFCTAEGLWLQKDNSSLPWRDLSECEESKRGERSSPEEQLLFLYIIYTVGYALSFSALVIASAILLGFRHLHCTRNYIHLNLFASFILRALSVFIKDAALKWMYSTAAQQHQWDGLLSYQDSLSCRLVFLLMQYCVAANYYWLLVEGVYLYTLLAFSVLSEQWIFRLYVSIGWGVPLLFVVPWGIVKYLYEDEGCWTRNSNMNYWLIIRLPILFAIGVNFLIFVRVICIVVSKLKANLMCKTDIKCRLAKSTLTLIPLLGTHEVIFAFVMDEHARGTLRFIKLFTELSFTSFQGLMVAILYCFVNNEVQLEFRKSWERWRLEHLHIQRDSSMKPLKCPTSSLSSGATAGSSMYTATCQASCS
hGLP-1R, sequence (P43220 24-463): as above

B1: Example 13 (peptide)
chain: YXQGTFTSDFSKXLDKKAQXAFIEYLLAGGPSSGAPPPSSG
modifications: Aib, αMeL, acylated K, C-terminal amide; synthetic construct; SITE 2: note = 2-Aminoisobutyric Acid; SITE 13: note = alpha-methyl-leucine; SITE 17: note = Lysine is chemically modified through conjugation of the epsilon-amino group of the Lysine side chain with (2-[2-(2-Amino-ethoxy)-ethoxy]-acetyl)-(gamma-Glu)-CO-(CH2) 18-CO2H; SITE 20: n
As to B1, in the experiment with hGLP-1R, the Relative cAMP EC50 was determined as 1.78 nM and the cAMP Rel EC50 (in the presence of 1% HSA) came out at 282 nM. In experiment [1], the Relative cAMP EC50 turned out to be 0.196 nM and the cAMP Rel EC50 (in the presence of 1% HSA) came out at 29.2 nM. In experiment [2], the GLP1R Internalization EC50 was 53.3 nM and the Internalization % TOP was 74.7%. Further, in experiment [3], the Relative cAMP EC50 was found to be 7.19 nM and the cAMP Rel EC50 (in the presence of 1% HSA) turned out to be 1670 nM.

B2: Example 11 (peptide)
chain: B1 chain with S40G, G41E
modifications: Aib, αMeL; acylated Lys; C-terminal amide; synthetic construct; SITE 2: note = 2-Aminoisobutyric Acid; SITE 13: note = alpha-methyl-leucine; SITE 17: note = Lysine is chemically modified through conjugation of the epsilon-amino group of the Lysine side chain with (2-[2-(2-Amino-ethoxy)-ethoxy]-acetyl)-(gamma-Glu)-CO-(CH2) 18-CO2H; SITE 20: n
With B2, in the experiment with hGLP-1R, the Relative cAMP EC50 was determined as 2.07 nM and the cAMP Rel EC50 (in the presence of 1% HSA) was found to be 337 nM. Besides, in experiment [1], the Relative cAMP EC50 came out at 0.233 nM and the cAMP Rel EC50 (in the presence of 1% HSA) is 40.8 nM. Also, in experiment [2], the GLP1R Internalization EC50 was 75.1 nM and the Internalization % TOP turned out to be 73.8%. Further, in experiment [3], the Relative cAMP EC50 is 12.5 nM and the cAMP Rel EC50 (in the presence of 1% HSA) is 1700 nM.

B3: Example 10 (peptide)
chain: B1 chain with S40E
modifications: Aib, αMeL; acylated lysine; C-terminal amide; synthetic construct; SITE 2: note = 2-Aminoisobutyric Acid; SITE 13: note = alpha-methyl-leucine; SITE 17: note = Lysine is chemically modified through conjugation of the epsilon-amino group of the Lysine side chain with (2-[2-(2-Amino-ethoxy)-ethoxy]-acetyl)-(gamma-Glu)-CO-(CH2) 18-CO2H; SITE 20: n
Take B3: in the experiment with hGLP-1R, the Relative cAMP EC50 is 1.85 nM and the cAMP Rel EC50 (in the presence of 1% HSA) came to 375 nM. In experiment [1], the Relative cAMP EC50 is 0.226 nM and the cAMP Rel EC50 (in the presence of 1% HSA) came out at 43 nM. In experiment [2], this molecule returned a GLP1R Internalization EC50 of 79.2 nM and an Internalization % TOP of 71.9%. In experiment [3], the Relative cAMP EC50 is 7.62 nM and the cAMP Rel EC50 (in the presence of 1% HSA) worked out at 1640 nM.

B4: Example 80 (peptide)
chain: B1 chain with K12R, A28E, G29X, S40G, G41S
modifications: synthetic construct; SITE 2: note = 2-Aminoisobutyric Acid; SITE 13: note = alpha-methyl-leucine; SITE 17: note = Lysine is chemically modified through conjugation of the epsilon-amino group of the Lysine side chain with (2-[2-(2-Amino-ethoxy)-ethoxy]-acetyl)2-(gamma-Glu)-CO-(CH2 )16-CO2H; SITE 20:
For the molecule B4, in the experiment with hGLP-1R, the Relative cAMP EC50 worked out at 2.55 nM and the cAMP Rel EC50, nM (in the presence of 1% HSA) is 627 nM. Further, in experiment [1], the Relative cAMP EC50 came to 0.0593 nM and the cAMP Rel EC50, nM (in the presence of 1% HSA) came to 10.1 nM. In experiment [2], this molecule showed a GLP1R Internalization EC50 of 35.8 nM and an Internalization % TOP of 48.2%. In addition, in experiment [3], the Relative cAMP EC50 amounted to 7.44 nM and the cAMP Rel EC50, nM (in the presence of 1% HSA) was found to be 1190 nM.

B5: Example 8 (peptide)
chain: B1 chain with A35E, S40G, G41S
modifications: non-natural residues, acylation, C-terminal amide; synthetic construct; SITE 2: note = 2-Aminoisobutyric Acid; SITE 13: note = alpha-methyl-leucine; SITE 17: note = Lysine is chemically modified through conjugation of the epsilon-amino group of the Lysine side chain with (2-[2-(2-Amino-ethoxy)-ethoxy]-acetyl)-(gamma-Glu)-CO-(CH2) 18-CO2H; SITE 20: n
On to B5, for which the figures for the Relative cAMP EC50 (in the experiment with hGLP-1R; in experiment [1]; in experiment [3]) were 2.11 nM, 0.231 nM and 6.65 nM, respectively. The cAMP Rel EC50 (in the presence of 1% HSA) with hGLP-1R stood at 603 nM; in experiment [1], 39.4 nM; in experiment [3], 1560 nM. Further, the GLP1R Internalization EC50 in experiment [2] was determined as 63.2 nM. The Internalization % TOP in experiment [2] turned out to be 74%.

B6: Example 79 (peptide)
chain: B1 chain with K12R, A28E, G29X, S40G, G41S
modifications: synthetic construct; SITE 2: note = 2-Aminoisobutyric Acid; SITE 13: note = alpha-methyl-leucine; SITE 17: note = Lysine is chemically modified through conjugation of the epsilon-amino group of the Lysine side chain with (2-[2-(2-Amino-ethoxy)-ethoxy]-acetyl)-(gamma-Glu)-CO-(CH2) 16-CO2H; SITE 20: n
As to B6, the Relative cAMP EC50 in the experiment with hGLP-1R was 1.8 nM; in experiment [1] it was 0.0773 nM; in experiment [3], 3.08 nM. Further, the figures for the cAMP Rel EC50, nM (in the presence of 1% HSA) (in the experiment with hGLP-1R; in experiment [1]; in experiment [3]) were 437 nM, 14.3 nM and 903 nM, respectively. Moreover, the GLP1R Internalization EC50 in experiment [2] worked out at 56.6 nM. Also, in experiment [2], the Internalization % TOP is 45.3%.

B7: Example 87 (peptide)
chain: B1 chain with K12X, S40G, G41T
modifications: synthetic construct; SITE 2: note = 2-Aminoisobutyric Acid; SITE 12: note = L-ornithine; SITE 13: note = alpha-methyl-leucine; SITE 17: note = Lysine is chemically modified through conjugation of the epsilon-amino group of the Lysine side chain with (2-[2-(2-Amino-ethoxy)-ethoxy]-acetyl)-(gamma-Glu)
As for B7, the Relative cAMP EC50 with hGLP-1R is 2.75 nM; in experiment [1], 0.128 nM; in experiment [3] it was 8.51 nM. For the same molecule, the values for the cAMP Rel EC50, nM (in the presence of 1% HSA) (with hGLP-1R; in experiment [1]; in experiment [3]) were 290 nM, 12.8 nM and 1110 nM, respectively. For the same molecule, the GLP1R Internalization EC50 in experiment [2] stood at 61.8 nM. The Internalization % TOP in experiment [2] amounted to 45.4%.

B8: Example 15 (peptide)
chain: B1 chain with S39G, S40G, G41E
modifications: acylated Lys, Aib, αMeL, C-terminal amide; synthetic construct; SITE 2: note = 2-Aminoisobutyric Acid; SITE 13: note = alpha-methyl-leucine; SITE 17: note = Lysine is chemically modified through conjugation of the epsilon-amino group of the Lysine side chain with (2-[2-(2-Amino-ethoxy)-ethoxy]-acetyl)-(gamma-Glu)-CO-(CH2) 18-CO2H; SITE 20: n
On to B8, for which the values for the Relative cAMP EC50 (with hGLP-1R; in experiment [1]; in experiment [3]) were 1.77 nM, 0.201 nM and 11.1 nM, respectively. For the same molecule, the values for the cAMP Rel EC50 (in the presence of 1% HSA) (in the experiment with hGLP-1R; in experiment [1]; in experiment [3]) were 276 nM, 36.3 nM and 1980 nM, respectively. In experiment [2], this molecule came in with a GLP1R Internalization EC50 of 79 nM. The molecule also came in with an Internalization % TOP in experiment [2] of 74.9%.

B9: Example 16 (peptide)
chain: B1 chain with S39G, S40G, G41S
modifications: Aib, αMeL; acylated Lys; C-terminal amide; synthetic construct; SITE 2: note = 2-Aminoisobutyric Acid; SITE 13: note = alpha-methyl-leucine; SITE 17: note = Lysine is chemically modified through conjugation of the epsilon-amino group of the Lysine side chain with (2-[2-(2-Amino-ethoxy)-ethoxy]-acetyl)-(gamma-Glu)-CO-(CH2) 18-CO2H; SITE 20: n
Regarding B9, in the experiment with hGLP-1R, the Relative cAMP EC50 turned out to be 1.54 nM and the cAMP Rel EC50 (in the presence of 1% HSA) is 281 nM. For the same molecule, in experiment [1], the Relative cAMP EC50 turned out to be 0.217 nM and the cAMP Rel EC50 (in the presence of 1% HSA) was found to be 35.9 nM. Further, in experiment [2], the GLP1R Internalization EC50 worked out at 37.8 nM and the Internalization % TOP worked out at 74.6%. Moreover, in experiment [3], the Relative cAMP EC50 came to 8.84 nM and the cAMP Rel EC50 (in the presence of 1% HSA) turned out to be 1660 nM.
